Measurements as given in the supplement of paper PMC10065799, “High-throughput profiling of sequence recognition by tyrosine kinases and SH2 domains using bacterial peptide display” (eLife, 2023).

Assays:
Fer (mouse) = experiment: phosphorylation enrichment, bacterial display (enrichment ratio); higher = better substrate or ligand; peptides without Tyr show the background
AncSZ = experiment: as above
Fyn = Fyn (UniProt P06241); experiment: as above
EPHB1 = EPHB1 (UniProt P54762); experiment: as above
Hck = Hck (UniProt P08631); experiment: as above
c-Abl (mouse) = experiment: as above
c-Src = experiment: as above
Fes = Fes (UniProt P07332); experiment: as above
FGFR1 = FGFR1 (UniProt P11362); experiment: as above
MERTK = MERTK (UniProt Q12866); experiment: as above
Jak2 = Jak2 (UniProt O60674); experiment: as above
EPHB2 = EPHB2 (UniProt P29323); experiment: as above
FGFR3 = FGFR3 (UniProt P22607); experiment: as above
Grb2 SH2 = Grb2 SH2 (UniProt P62993); experiment: SH2 binding enrichment of the phosphorylated peptide, bacterial display (enrichment ratio); higher = better substrate or ligand; peptides without Tyr show the background
c-Src SH2 = experiment: as above
SHP2-C SH2 = experiment: as above
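For SH2 binding enrichment of the phosphorylated peptide, bacterial display in this document: peptide library displayed on the E. coli surface as eCPX fusions, selected cells deep-sequenced, score is each peptide's frequency after selection divided by its frequency in the input.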
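For phosphorylation enrichment, bacterial display in this document: 11-residue human phosphosite peptides and single-mutation variants displayed on the E. coli surface, counted by deep sequencing, each peptide's frequency after selection divided by its frequency in the unselected input library; frequency after pTyr selection over input frequency; kinase dosed for 20-30% of maximal phosphorylation in three min.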

Chain of FGFR1 (P11362 whole entry, looked up): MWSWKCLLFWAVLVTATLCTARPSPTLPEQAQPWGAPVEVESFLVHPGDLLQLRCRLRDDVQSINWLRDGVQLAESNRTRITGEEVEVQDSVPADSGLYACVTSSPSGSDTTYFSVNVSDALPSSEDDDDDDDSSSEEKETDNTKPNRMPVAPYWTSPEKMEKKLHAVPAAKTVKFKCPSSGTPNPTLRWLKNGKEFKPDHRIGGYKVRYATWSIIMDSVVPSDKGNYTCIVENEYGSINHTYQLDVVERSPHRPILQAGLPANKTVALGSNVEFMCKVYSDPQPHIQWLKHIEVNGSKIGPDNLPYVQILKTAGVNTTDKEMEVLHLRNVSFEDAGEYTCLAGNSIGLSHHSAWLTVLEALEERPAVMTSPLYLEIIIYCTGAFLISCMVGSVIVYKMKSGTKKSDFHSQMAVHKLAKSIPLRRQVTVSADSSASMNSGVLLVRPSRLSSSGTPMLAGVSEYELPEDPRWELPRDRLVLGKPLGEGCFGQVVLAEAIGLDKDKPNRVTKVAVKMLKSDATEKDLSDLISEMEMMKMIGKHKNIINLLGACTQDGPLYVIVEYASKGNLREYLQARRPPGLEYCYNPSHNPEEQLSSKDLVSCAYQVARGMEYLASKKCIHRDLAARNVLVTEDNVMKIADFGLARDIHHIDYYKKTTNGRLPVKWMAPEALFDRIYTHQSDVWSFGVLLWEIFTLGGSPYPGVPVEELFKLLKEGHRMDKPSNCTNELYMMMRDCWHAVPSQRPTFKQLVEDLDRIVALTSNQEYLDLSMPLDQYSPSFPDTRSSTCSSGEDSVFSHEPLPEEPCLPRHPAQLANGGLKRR
Chain of EPHB1 (P54762 whole entry, looked up): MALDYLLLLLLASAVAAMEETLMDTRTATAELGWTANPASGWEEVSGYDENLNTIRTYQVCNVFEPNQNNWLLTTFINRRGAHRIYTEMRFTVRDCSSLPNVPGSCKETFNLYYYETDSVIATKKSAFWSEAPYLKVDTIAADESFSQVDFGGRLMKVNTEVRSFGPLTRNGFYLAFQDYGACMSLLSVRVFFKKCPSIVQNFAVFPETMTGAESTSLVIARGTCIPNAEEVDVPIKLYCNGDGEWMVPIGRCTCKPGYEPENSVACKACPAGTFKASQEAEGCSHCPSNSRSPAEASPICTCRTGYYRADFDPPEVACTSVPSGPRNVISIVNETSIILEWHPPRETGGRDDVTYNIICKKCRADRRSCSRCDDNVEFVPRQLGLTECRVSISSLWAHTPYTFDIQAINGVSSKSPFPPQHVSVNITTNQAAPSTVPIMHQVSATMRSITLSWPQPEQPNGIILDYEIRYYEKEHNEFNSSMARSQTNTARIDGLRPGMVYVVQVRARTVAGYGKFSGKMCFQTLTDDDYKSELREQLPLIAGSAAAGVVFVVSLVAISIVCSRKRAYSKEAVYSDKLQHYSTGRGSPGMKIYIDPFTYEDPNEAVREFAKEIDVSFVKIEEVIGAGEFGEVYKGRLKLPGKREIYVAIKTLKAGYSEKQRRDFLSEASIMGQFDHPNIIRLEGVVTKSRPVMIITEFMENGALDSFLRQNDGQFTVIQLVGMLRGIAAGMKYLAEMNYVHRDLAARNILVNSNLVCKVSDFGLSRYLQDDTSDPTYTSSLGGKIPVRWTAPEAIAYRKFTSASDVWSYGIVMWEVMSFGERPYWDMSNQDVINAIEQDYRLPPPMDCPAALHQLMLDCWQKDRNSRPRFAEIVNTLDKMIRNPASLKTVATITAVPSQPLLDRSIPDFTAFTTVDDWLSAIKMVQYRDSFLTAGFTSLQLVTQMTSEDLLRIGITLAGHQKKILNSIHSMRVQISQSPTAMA
Chain of Jak2 (O60674 whole entry, looked up): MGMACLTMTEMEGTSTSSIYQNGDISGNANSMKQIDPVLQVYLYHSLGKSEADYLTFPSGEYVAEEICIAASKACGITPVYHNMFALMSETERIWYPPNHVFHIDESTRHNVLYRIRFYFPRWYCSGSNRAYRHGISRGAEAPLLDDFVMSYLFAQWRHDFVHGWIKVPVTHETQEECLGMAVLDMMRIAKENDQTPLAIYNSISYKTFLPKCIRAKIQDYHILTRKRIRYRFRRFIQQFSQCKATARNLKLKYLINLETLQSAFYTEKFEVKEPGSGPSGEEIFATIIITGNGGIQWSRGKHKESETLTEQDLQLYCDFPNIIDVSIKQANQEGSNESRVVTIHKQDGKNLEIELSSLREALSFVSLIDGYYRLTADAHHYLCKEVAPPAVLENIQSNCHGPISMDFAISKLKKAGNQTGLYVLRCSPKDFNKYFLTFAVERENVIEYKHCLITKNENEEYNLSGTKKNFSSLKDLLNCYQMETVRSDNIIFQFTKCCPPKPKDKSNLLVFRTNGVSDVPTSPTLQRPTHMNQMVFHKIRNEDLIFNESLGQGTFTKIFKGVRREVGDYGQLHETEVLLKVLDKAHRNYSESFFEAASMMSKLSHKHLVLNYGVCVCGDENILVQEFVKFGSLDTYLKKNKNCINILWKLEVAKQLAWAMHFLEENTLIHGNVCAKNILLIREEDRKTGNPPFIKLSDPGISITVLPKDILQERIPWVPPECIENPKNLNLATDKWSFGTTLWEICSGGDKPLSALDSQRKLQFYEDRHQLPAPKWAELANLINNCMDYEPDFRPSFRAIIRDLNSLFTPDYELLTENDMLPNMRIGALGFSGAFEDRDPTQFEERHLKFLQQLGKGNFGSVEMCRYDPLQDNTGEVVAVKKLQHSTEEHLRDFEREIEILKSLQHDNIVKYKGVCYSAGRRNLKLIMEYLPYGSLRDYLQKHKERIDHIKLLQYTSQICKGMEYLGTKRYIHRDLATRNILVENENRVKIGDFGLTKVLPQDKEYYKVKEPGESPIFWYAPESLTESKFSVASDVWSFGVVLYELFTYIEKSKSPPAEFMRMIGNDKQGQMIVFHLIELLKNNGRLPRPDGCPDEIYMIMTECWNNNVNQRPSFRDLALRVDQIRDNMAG
Chain of Fyn (P06241 whole entry, looked up): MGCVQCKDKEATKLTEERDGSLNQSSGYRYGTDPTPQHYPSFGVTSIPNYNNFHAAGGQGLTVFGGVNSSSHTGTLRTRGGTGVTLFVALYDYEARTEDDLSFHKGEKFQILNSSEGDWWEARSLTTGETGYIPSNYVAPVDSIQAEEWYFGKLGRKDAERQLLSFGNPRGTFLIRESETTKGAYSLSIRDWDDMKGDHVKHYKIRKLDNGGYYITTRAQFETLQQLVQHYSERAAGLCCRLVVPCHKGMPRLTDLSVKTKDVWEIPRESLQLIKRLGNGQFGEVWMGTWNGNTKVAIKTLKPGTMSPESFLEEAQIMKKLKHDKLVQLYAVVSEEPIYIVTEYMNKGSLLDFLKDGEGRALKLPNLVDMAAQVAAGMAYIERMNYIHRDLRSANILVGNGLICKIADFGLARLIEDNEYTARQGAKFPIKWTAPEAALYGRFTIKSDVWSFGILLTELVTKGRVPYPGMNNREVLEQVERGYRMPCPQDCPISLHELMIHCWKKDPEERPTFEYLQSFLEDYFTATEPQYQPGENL
Chain of EPHB2 (P29323 whole entry, looked up): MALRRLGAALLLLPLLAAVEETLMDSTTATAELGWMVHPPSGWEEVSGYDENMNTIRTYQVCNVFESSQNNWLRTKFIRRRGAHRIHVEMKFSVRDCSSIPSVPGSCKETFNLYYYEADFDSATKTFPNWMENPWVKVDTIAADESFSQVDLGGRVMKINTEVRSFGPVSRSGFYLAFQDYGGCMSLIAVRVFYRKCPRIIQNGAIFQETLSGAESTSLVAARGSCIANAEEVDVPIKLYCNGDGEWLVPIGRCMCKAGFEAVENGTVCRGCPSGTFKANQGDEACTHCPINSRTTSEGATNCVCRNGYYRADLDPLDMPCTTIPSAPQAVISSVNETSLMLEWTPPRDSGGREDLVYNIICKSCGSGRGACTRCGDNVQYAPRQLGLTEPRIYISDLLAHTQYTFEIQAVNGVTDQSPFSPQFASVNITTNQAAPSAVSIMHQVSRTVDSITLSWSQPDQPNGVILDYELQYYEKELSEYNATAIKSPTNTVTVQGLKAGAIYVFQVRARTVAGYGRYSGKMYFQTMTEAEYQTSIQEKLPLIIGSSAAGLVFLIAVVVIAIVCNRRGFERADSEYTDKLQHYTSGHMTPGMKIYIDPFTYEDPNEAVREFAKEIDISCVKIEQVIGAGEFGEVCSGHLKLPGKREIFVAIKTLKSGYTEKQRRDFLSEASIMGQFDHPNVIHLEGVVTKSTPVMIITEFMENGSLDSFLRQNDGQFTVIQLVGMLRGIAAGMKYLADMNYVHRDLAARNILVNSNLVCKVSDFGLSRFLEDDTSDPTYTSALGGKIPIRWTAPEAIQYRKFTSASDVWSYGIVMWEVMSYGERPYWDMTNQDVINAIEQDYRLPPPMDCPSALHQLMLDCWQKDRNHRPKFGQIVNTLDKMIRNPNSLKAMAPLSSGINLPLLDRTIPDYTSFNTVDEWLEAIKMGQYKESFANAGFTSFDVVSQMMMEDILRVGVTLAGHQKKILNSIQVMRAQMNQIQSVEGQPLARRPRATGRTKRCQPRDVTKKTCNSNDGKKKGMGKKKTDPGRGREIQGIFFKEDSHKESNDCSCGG
Chain of Hck (P08631 whole entry, looked up): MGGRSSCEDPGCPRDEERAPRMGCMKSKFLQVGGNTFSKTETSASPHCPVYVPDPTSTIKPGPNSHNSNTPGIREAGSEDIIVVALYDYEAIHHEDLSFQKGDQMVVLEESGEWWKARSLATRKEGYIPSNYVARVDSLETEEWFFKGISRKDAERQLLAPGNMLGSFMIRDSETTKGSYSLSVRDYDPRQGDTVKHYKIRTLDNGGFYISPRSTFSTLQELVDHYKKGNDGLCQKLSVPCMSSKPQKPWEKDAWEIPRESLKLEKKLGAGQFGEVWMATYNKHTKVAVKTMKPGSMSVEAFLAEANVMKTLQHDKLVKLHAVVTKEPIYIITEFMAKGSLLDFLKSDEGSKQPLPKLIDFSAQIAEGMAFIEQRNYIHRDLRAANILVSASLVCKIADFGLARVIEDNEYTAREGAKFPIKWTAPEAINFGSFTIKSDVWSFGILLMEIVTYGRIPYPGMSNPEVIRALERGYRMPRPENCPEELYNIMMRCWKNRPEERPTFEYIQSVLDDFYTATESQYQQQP

Row | Sequence | SH2 binding enrichment (Grb2 SH2) | SH2 binding enrichment (c-Src SH2) | SH2 binding enrichment (SHP2-C SH2) | phosphorylation enrichment (Fer (mouse)) | phosphorylation enrichment (AncSZ) | phosphorylation enrichment (Fyn) | phosphorylation enrichment (EPHB1) | phosphorylation enrichment (Hck) | phosphorylation enrichment (c-Abl (mouse)) | phosphorylation enrichment (c-Src) | phosphorylation enrichment (Fes) | phosphorylation enrichment (FGFR1) | phosphorylation enrichment (MERTK) | phosphorylation enrichment (Jak2) | phosphorylation enrichment (EPHB2) | phosphorylation enrichment (FGFR3)
1 | PLRAFYLIARV [HLCS_Y635_D634Y_YF] | 0.996 | 0.6 | 0.738 | 1.26 | 3.67 | 0.92 | 1.02 | 0.866 | 3.67 | 2.27 | 4.68 | 1.07 | 1.33 | 5.18 | 1.46 | 1.84
2 | PPVVNYEQDAR [FER_Y402_E404Q] | 0.879 | 0.728 | 0.826 | 0.679 | 1.33 | 0.636 | 1.01 | 0.628 | 0.767 | 0.646 | 1.18 | 0.69 | 0.541 | 1.49 | 0.534 | 1.29
3 | PQAVRYIYTID [DCX_Y103_G100A] | 0.882 | 0.644 | 17.1 | 0.67 | 1.12 | 7.37 | 0.74 | 3.66 | 1.01 | 6.46 | 1.42 | 0.723 | 1.72 | 0.983 | 0.722 | 0.74
4 | PQDVTYAQLHS [LILRB4_Y412] | 0.56 | 0.973 | 1.52 | 0.685 | 0.959 | 4.37 | 1.22 | 6.52 | 0.815 | 2.8 | 1.22 | 0.351 | 0.645 | 0.786 | 0.999 | 0.75
5 | PSELFYSKISP [SMG1_Y2254_G2258S_YF] | 0.854 | 3.17 | 3.93 | 11.3 | 1.15 | 2.06 | 1.59 | 8.64 | 3.5 | 3.48 | 0.972 | 3.79 | 13.6 | 2.3 | 1.52 | 2.72
6 | PSPMPYASCQM [FOXL2_Y215] | 0.688 | 1.24 | 0.848 | 1 | 1.28 | 0.519 | 0.631 | 0.661 | 0.666 | 0.865 | 1.07 | 0.671 | 0.608 | 0.98 | 0.65 | 0.625
7 | PVQAVYQKVVA [HBB_Y131_A130V] | 0.913 | 1.3 | 1.01 | 1.14 | 0.373 | 0.677 | 0.727 | 1.75 | 0.203 | 1.61 | 0.532 | 0.421 | 1.47 | 0.289 | 0.578 | 0.617
8 | QEMMEYRRQIQ [DES_Y324_H326R] | 0.737 | 0.401 | 0.734 | 0.644 | 0.878 | 0.491 | 0.523 | 0.355 | 0.428 | 0.563 | 0.92 | 0.424 | 0.455 | 1.18 | 0.601 | 0.607
9 | QGCSIYKDFFR [PLA2G2D_Y82_YF] | 0.921 | 0.487 | 0.724 | 0.774 | 1.44 | 3.19 | 1.11 | 1.86 | 2.14 | 6.61 | 1.74 | 0.721 | 0.998 | 2.25 | 1.18 | 1.28
10 | QGIIIYKAAYF [SLC25A4_Y187_R188K] | 0.708 | 0.391 | 0.942 | 1.01 | 1.66 | 0.53 | 0.94 | 0.647 | 1.85 | 1.06 | 2.36 | 0.948 | 1.04 | 2.63 | 1.04 | 1.2
11 | QGIYGYHHHMQ [UFSP2_Y287_Y290H] | 1.09 | 1.07 | 1.07 | 10.9 | 0.932 | 9.98 | 2.34 | 9.07 | 4.62 | 7.86 | 0.923 | 0.613 | 9.93 | 0.598 | 4.59 | 0.653
12 | QISQDYGVLLE [PRDX3_Y172_R170Q] | 0.52 | 0.516 | 0.482 | 0.673 | 1.37 | 0.828 | 0.876 | 0.743 | 1.18 | 0.981 | 1.69 | 0.851 | 0.603 | 1.32 | 1.21 | 0.792
13 | QISRDYGVLLE [PRDX3_Y172] | 0.845 | 0.576 | 0.683 | 0.637 | 0.922 | 0.624 | 0.617 | 0.751 | 0.635 | 0.679 | 1.04 | 0.523 | 0.64 | 0.862 | 0.731 | 0.69
14 | QKMFDYLKEKK [RYR2_Y3780_L3778F] | 0.743 | 0.363 | 0.738 | 0.574 | 0.797 | 0.445 | 0.558 | 0.471 | 0.763 | 0.471 | 0.958 | 0.459 | 0.403 | 0.805 | 0.438 | 0.595
15 | QLLIKYPPEEV [ZZZ3_Y670] | 0.848 | 0.626 | 1 | 0.473 | 1.25 | 0.7 | 0.898 | 0.566 | 1.25 | 0.604 | 1.62 | 0.811 | 0.858 | 1.39 | 0.816 | 0.95
16 | QMVGMYAFSFM [AVPR2_Y124_S126F_YF] | 0.654 | 0.353 | 0.817 | 3.54 | 1.5 | 1.16 | 1.95 | 1.06 | 0.912 | 1.28 | 1.65 | 0.846 | 5.8 | 1.15 | 3.08 | 1.63
17 | QNKEDYAGLKE [GSTO1_Y139] | 0.69 | 0.803 | 0.902 | 2.22 | 1.34 | 0.919 | 0.494 | 0.82 | 1.37 | 1.01 | 1.6 | 0.893 | 1.09 | 1.24 | 1.29 | 1.73
18 | QNKEDYDGLKE [GSTO1_Y139_A140D] | 1.09 | 0.765 | 0.737 | 0.754 | 1.83 | 0.943 | 1.02 | 0.915 | 1.19 | 0.641 | 1.74 | 0.867 | 0.666 | 1.13 | 1.04 | 1.3
19 | QPGTDYKIYLY [FN1_Y1970] | 0.741 | 0.466 | 0.753 | 0.792 | 1.74 | 0.715 | 0.939 | 0.86 | 1.04 | 0.804 | 1.55 | 0.705 | 0.501 | 1.69 | 0.759 | 0.846

More lines, main results first:

Row | SH2 binding enrichment (Grb2 SH2) | SH2 binding enrichment (c-Src SH2) | SH2 binding enrichment (SHP2-C SH2) | Sequence | phosphorylation enrichment (Fer (mouse)) | phosphorylation enrichment (AncSZ) | phosphorylation enrichment (Fyn) | phosphorylation enrichment (EPHB1) | phosphorylation enrichment (Hck) | phosphorylation enrichment (c-Abl (mouse)) | phosphorylation enrichment (c-Src) | phosphorylation enrichment (Fes) | phosphorylation enrichment (FGFR1) | phosphorylation enrichment (MERTK) | phosphorylation enrichment (Jak2) | phosphorylation enrichment (EPHB2) | phosphorylation enrichment (FGFR3)
20 | 0.615 | 0.601 | 0.721 | PMQMPYDSRWE [PDGFRA_Y582_L580M] | 0.671 | 1.52 | 0.374 | 0.835 | 0.794 | 1.96 | 1.49 | 1.47 | 0.865 | 0.728 | 2.03 | 0.801 | 1.1
21 | 0.97 | 0.425 | 0.544 | PPQFSYGLQTQ [SRA1_Y35] | 0.286 | 0.466 | 0.346 | 0.333 | 0.443 | 0.483 | 0.426 | 0.604 | 0.586 | 0.467 | 0.433 | 0.584 | 0.308
22 | 0.847 | 0.539 | 0.288 | PSDLLYIPDIQ [ITGA2B_Y845_L847P] | 0.494 | 2 | 0.917 | 1.35 | 0.921 | 1.89 | 0.808 | 1.77 | 1.21 | 0.953 | 2 | 1.1 | 1.37
23 | 0.876 | 0.519 | 0.74 | PSGPTYRGAVP [ASAH1_Y43] | 0.417 | 0.772 | 0.602 | 0.757 | 0.583 | 0.489 | 0.878 | 0.698 | 0.58 | 0.58 | 0.611 | 0.509 | 0.503
24 | 0.76 | 0.439 | 0.55 | PSRKDYETFQS [CTNND2_Y1154_P1159S_YF] | 0.518 | 0.853 | 0.845 | 0.91 | 0.54 | 1.94 | 0.729 | 0.977 | 0.769 | 0.614 | 0.553 | 0.792 | 0.751
25 | 0.742 | 0.49 | 0.783 | PVFQVYPLLNC [GATA1_Y78] | 0.758 | 1.7 | 0.652 | 0.775 | 0.654 | 1.13 | 0.697 | 1.87 | 1.27 | 0.927 | 1.72 | 0.64 | 1.43
26 | 0.806 | 1.39 | 0.695 | PVPKTYDMLKA [PKP2_Y108] | 0.577 | 1.07 | 0.764 | 1.2 | 1.46 | 1.01 | 0.861 | 1.02 | 0.766 | 0.648 | 1.92 | 0.541 | 0.707
27 | 0.983 | 1.03 | 0.956 | PVQDAYQKVVA [HBB_Y131_A129D] | 0.493 | 0.526 | 0.366 | 0.445 | 0.353 | 0.421 | 0.386 | 0.453 | 0.397 | 0.379 | 0.425 | 0.308 | 0.429
28 | 0.873 | 0.669 | 0.598 | PYVYYYSYLLK [PTEN_Y178_R173P] | 1.1 | 1.99 | 1.88 | 3.56 | 3.46 | 3.68 | 3.14 | 1.87 | 6.02 | 5.9 | 4.21 | 1.92 | 6.37
29 | 0.832 | 0.658 | 0.801 | QDKDLYPCPGT [RLF_Y671_R668K] | 0.562 | 1.36 | 0.652 | 0.701 | 0.625 | 0.726 | 0.483 | 1.18 | 0.744 | 0.613 | 0.996 | 0.857 | 0.785
30 | 1.04 | 1.05 | 1.04 | QITQVYGFYHE [PPP2CA_Y127_D131H] | 0.872 | 0.938 | 10.1 | 0.66 | 7.96 | 0.67 | 8.14 | 1.07 | 0.614 | 3.47 | 1.21 | 0.877 | 0.753
31 | 1.27 | 1.13 | 1.35 | QLYGAYLRIHA [BSCL2_Y213] | 0.536 | 1.95 | 7.21 | 1 | 4.32 | 0.915 | 3.58 | 1.68 | 1.02 | 0.905 | 1.2 | 1.3 | 1.12
32 | 1.11 | 1.22 | 1.13 | QNTGDYCDLYG [PTPN11_Y62_Y63C] | 1.39 | 2.75 | 1.49 | 9.03 | 2.08 | 1.34 | 1.84 | 1.08 | 5.87 | 0.633 | 1.35 | 7.83 | 4.13
33 | 0.958 | 0.628 | 0.771 | QNWELYSEGLG [CNKSR1_Y665_R662W] | 0.869 | 1.37 | 3.04 | 5.52 | 4.32 | 0.751 | 2.08 | 1.07 | 0.744 | 2.26 | 1.13 | 5.04 | 0.746
